For one assay, the target named is T1, CXCR2 (UniProt P25025 1-360, limits assumed).
T1 construct: also called IL-8R
T1 sequence (looked up): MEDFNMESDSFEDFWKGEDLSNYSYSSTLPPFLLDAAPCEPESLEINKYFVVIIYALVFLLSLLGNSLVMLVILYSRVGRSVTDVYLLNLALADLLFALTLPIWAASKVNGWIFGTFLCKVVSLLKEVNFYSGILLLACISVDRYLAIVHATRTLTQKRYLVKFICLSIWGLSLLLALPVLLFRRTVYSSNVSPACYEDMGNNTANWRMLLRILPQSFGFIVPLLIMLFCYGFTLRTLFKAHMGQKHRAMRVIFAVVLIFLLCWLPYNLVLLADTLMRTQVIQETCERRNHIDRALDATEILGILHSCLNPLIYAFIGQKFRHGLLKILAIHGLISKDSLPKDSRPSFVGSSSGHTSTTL
Nature of the assay: indirect ELISA, ONCO P8-CXCR2 complex formation. On the technique in general: An ELISA detects its analyte on a solid surface through an enzyme-linked reagent.

For a further assay, the target named is T2, CXCR1 (UniProt P25024 1-350, limits assumed).
T2 construct: also called IL-8R
T2 sequence (looked up): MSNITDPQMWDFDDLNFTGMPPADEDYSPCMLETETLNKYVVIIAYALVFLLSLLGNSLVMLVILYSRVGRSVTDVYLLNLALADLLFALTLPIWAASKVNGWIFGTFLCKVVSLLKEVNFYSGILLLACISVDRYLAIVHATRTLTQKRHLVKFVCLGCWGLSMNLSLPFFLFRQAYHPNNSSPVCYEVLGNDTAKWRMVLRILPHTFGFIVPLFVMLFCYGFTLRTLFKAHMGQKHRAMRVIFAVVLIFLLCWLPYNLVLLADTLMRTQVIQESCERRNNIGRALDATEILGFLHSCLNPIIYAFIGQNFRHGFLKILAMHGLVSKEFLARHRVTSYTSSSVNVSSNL
In words: indirect ELISA, ONCO P8-CXCR1 complex formation. From the text:
The Kd Equation include: (1) i=A_{450 nm}/A^max_{450 nm}, then i=Ligand/Ligand^max; (2) 1/(1−i)=(Ligₜₒₜ/i)/Kd−b, b=fqSrec/Kd.

For orientation: Kd means a measure of binding affinity in units of concentration.

B1: ONCO P-8 (peptide)
chain: GSKELRCQCIRSYSKPFHPKFIKELRVIPASQFCANTEIIVKLSDGRELCLDPKENWVQRVVEKFLKRAENS
notes: Designed analogue of CXCL8 (IL-8), described as an antagonist of CXCR1 and CXCR2; also called chemokine receptor antagonistic modified peptide
In the case of B1, the Kd stood at 139 nM with CXCR2 and 286 nM with CXCR1.

The values are drawn from patent publication US20210128683A1 (RISE BIOPHARMACEUTICALS, published 2021).
